Test: Tf-DAK-PEG-OPSS degradation in pH 5.5 buffer followed by MALDI-TOF
Assay type: physicochemical
Conditions: 37° C., crude mixture
Procedure: At various time points, aliquots were removed, diluted 1:10 in 10 mM NaH2PO4 pH 8.0 and frozen on CO2(s). Once the last aliquot was removed, all samples were melted and immediately measured by MALDI-TOF using a sinapinic acid matrix.

For “Tf-DAK-PEG-OPSS: human holo-Tf conjugated through diamino ketal (DAK) linker to PEG-orthopyridyl disulfide”, the “Time by which nearly all the PEG has cleaved” value was at most 2 h.

Source: patent publication US10182986B2, “Method of delivering therapeutics and imaging agents to the brain by nanoparticles that cross the blood brain barrier” (CALIFORNIA INSTITUTE OF TECHNOLOGY, priority 2013, dated 2019)
